Data on one substance can be found in patent publication US20060140970A1, “Proteic binding partners of TCTP and methods of modulating tumor reversion or cell apoptosis” (priority 2003, published 2006).

Read-outs that look alike come from different tables or passages of the source.

One series deals with bovine brain tubulin. Kind of series: In vitro tubulin polymerization assay (absorbance at 340 nm). In kind it is biochemical. The note with it: 3 μg purified protein, 2 mg/ml tubulin, 32° C. The protocol: In vitro tubulin polymerization assays. Pure bovine brain tubulin protein was reconstituted at a final concentration of 10 mg/ml in cold G-PEM buffer (80 mM Piperazine-N,N′-bis-[2-ethanesulfonic acid] equisodium salt (PIPES), 0.5 mM magnesium chloride (MgCl2), 1 mM ethylene glycol-bis-(b-amino-ethyl ether)-N,N,N′,N′-tetra-acetic acid (EGTA), 1 mM Guanosine 5′-triphosphate (GTP), pH 6.9). Samples of 2 mg/ml tubulin in G-PEM buffer were incubated either with 3 μg of ovalbumin (negative control), with 3 μg of purified recombinant TCTP protein, or with […] of purified recombinant OP18 protein. Then, the samples were placed in quartz cuvettes and incubated at 32° C. Tubulin polymerization was observed by measuring the absorbance of the solution at 340 nm over time.
Since TCTP exerts tubulin and microtubules binding properties (Gachet et al., J. Cell Sci., 1 12(Pt 8): 1257-1271 (1999)), whether TCTP could directly regulate the microtubule dynamics was investigated. An in vitro tubulin polymerization assay, using purified tubulin, was developed. […] In the presence of 3 μg of purified OP18 from E. Coil, the polymerization of tubulin was abolished.

For the next series, the target named is T1, eEF1A (Oryctolagus cuniculus, UniProt P68105).
T1 construct: Rabbit liver eEF1A was purified as described in Shalak et al; from tissue; host or cells: rabbit liver
T1 sequence (P68105 1-462): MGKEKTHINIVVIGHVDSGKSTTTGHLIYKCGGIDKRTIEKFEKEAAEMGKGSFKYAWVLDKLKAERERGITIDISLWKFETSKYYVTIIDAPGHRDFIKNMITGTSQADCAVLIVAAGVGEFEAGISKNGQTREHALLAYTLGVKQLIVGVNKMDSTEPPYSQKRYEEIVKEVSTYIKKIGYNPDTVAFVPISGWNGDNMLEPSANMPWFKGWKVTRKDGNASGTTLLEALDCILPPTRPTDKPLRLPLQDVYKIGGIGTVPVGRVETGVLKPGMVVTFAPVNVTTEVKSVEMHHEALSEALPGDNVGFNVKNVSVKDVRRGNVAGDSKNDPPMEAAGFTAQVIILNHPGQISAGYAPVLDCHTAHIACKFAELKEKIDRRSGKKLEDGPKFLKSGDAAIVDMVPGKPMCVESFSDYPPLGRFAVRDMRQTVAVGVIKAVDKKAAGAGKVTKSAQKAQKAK
Kind of series: Guanine nucleotide exchange assay on eEF1A (eEF1A-[3H]GDP dissociation). In kind it is biochemical, rabbit. The procedure: (§1) Guanine nucleotide exchange assay. Rabbit liver eEF1A was purified as described in Shalak et al., Ukr Biokhim Zh, 69: 104-9 (1997), incorporated herein by reference. The guanine nucleotide exchange on eEF1A was monitored as described in Negrutskii et al., J Biol Chem, 274: 4545-50 (1999) and Bec et al., J Biol Chem, 269: 2086-92 (1994), both of which are incorporated herein by reference. The eEF1A-[^3H]GDP complex was prepared following incubation of 4 μM eEF1A with 4 μM [^3H]GDP (Amersham Biosciences; 1500 Ci/mol) in 80 μl of 45 mM Tris-HCl (pH 7.5) containing 0.5 mM DTT, 10 mM magnesium acetate, 100 mM NH4Cl, 1 mg/ml bovine serum albumin and 25% glycerol for 5 minutes at 37° C. The reaction mixture was placed on ice and diluted by addition of 640 μl of ice-cold exchange buffer [20 mM Tris-HCl (pH 7.5), 10 mM magnesium acetate, 50 mM NH4Cl, 10% glycerol]. The exchange reaction was conducted at 0° C. after addition of 160 μl of exchange buffer containing nucleotide and specified exchange factors. Aliquots of 100 μl were taken at times indicated and immediately filtered through nitrocellulose filters (Millipore; pore size 0.45 μm). Filters were washed 3 times with 1 ml of ice-cold washing buffer [20 mM Tris-HCl (pH 7.5), 10 mM magnesium acetate, 100 mM NH4Cl, 0.1 mg/ml bovine serum albumin], dried and counted in a liquid scintillator.
The functional relevance of a TCTP and eEF1A association was further investigated by monitoring the effects of TCTP on the rate of dissociation of GDP from the eEF1A-[^3H]-GDP complex. Whether TCTP preferentially binds to the GDP-bound form of the factor (and pushes the equilibrium toward the formation of eEF1A-GDP) or associates with the nucleotide free form of eEF1A (and displaces the exchange reaction toward the formation of eEF1A) was determined.
This corresponded to a rate of 0.082±0.004 pmol GDP exchanged/min/pmol of eEF1A. In the absence of free GDP in the incubation mixture, the eEF1A-[^3H]-GDP complex remained stable over a period of 40 minutes. Increasing amounts of TCTP (0.2 μM to 3.0 μM) were added in the exchange assay and the rate of dissociation of the eEF1A-[^3H]-GDP complex was monitored in the presence of 150 μM free GDP (FIG. 15A).

Series [1] has as its target T2, eEF1A (eEF1Bβ-mediated GDP exchange) (Oryctolagus cuniculus, UniProt P68105).
T2 construct: Rabbit liver eEF1A was purified as described in Shalak et al; Full-length TCTP, eEF1Bβ and NKTR cDNAs were cloned in-frame into pGEX-6P; GST (N, cleaved yes); made in house; host or cells: eEF1Bβ: E. coli BL21DE3; eEF1A: purified from rabbit liver
T2 sequence (P68105 2-462 limits assumed): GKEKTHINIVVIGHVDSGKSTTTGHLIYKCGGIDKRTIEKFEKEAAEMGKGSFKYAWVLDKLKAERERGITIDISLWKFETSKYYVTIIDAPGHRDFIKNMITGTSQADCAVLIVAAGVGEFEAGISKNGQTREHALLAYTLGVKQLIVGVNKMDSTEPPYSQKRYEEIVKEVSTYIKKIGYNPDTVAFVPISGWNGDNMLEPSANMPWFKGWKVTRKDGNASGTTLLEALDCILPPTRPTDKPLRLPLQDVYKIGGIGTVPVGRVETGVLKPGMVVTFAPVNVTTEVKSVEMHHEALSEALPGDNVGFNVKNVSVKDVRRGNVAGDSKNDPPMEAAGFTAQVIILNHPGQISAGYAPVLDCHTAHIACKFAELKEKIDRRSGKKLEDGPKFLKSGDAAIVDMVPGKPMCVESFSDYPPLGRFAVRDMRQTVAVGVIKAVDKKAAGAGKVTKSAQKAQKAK
Kind of series: eEF1Bβ-mediated GDP exchange on eEF1A. Format: biochemical, rabbit. Conditions: TCTP at a final concentration of 2 μM; simple first-order. The procedure: as §1, with “scintillator. […]” for “scintillator.”

The target of the next series is Arf1-GAP / [D17]ARF1 (Homo sapiens, UniProt P84077). Briefly: GTP-GDP exchange activity of Arf1-GAP on [D17]ARF1, tryptophan fluorescence. In kind it is biochemical. The note with it: 30 uM TCTP, 0.5 uM [D17]ARF1-GDP, 100 uM Arf-GAP; presence vs absence of TCTP. The procedure:
Into a buffer containing 1 mM free Mg^2+, 30 uM TCTP and 0.5 uM [D17]ARF1 -GDP were added. The reaction was initiated by the addition of 40 uM GTP and 2 mM EDTA. To stop the reaction, 2 mM MgCl2 was added. The Arf-GAP, at a concentration of 100 uM, was added. The reaction was measured in presence and absence of TCTP. […] In particular, it is shown that TCTP inhibits the GTP-GDP exchange catalyzed by Arf1-GAP, implicating that Arf1 is kept in its active conformation in presence of TCTP.

Series [2] deals with T3, eEF1A (eEF1Bαγ-mediated GDP exchange) (Oryctolagus cuniculus, UniProt P68105).
T3 construct: Rabbit liver eEF1A was purified as described in Shalak et al; from tissue; host or cells: rabbit liver (eEF1A only)
T3 sequence (P68105 2-462 limits assumed): T2 sequence (P68105 2-462 limits assumed)
Briefly: eEF1Bαγ-mediated GDP exchange on eEF1A. Conditions: TCTP at a final concentration of 2 μM. In kind it is biochemical, rabbit. The protocol:
as §1, with “scintillator. […]” for “scintillator.”

Sequence of Arf1-GAP / [D17]ARF1 (P84077 18-181 limits assumed): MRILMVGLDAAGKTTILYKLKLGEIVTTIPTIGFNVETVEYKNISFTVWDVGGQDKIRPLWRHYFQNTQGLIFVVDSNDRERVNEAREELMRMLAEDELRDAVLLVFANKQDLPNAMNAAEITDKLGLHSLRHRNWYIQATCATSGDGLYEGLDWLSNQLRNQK

For “TCTP: purified recombinant TCTP protein, bacterially expressed, GST moiety removed”, the “polymerization of purified tubulin” value in the series with bovine brain tubulin is “did not appear to affect the polymerization rate”. In the series with eEF1A, the “guanine nucleotide exchange activity” value is “devoid of exchange activity”. Besides, the “rate of GDP dissociation” value with eEF1A (3 μM TCTP, 150 μM free GDP) was 0.026±0.003 pmol GDP exchanged/min/pmol of eEF1A; in the series with eEF1A (with TCTP, unlabeled free GTP (150 μM) instead of GDP) it was 0.024±0.003 pmol GDP exchanged/min/pmol of eEF1A. The Kd was determined as 1200 ± 200 nM with eEF1A (150 μM free GDP, TCTP 0.2 μM to 3.0 μM, saturation kinetics, read-out: apparent dissociation constant Kd (inhibition of GDP exchange on eEF1A)) and 1600 ± 300 nM with eEF1A (unlabeled free GTP (150 μM) in the exchange reaction, read-out: apparent Kd of TCTP for the GDP form of eEF1A). Moreover, the “binding of nucleotides by the protein itself” value with eEF1A (TCTP by itself) is given as “did not bind nucleotides”. Moreover, the “initial rate of GDP exchange in the presence of eEF1Bβ” value in series [1] is on record as 0.294 min^−1 per pmol of eEF1Bβ. Also, the “GTP-GDP exchange catalyzed by Arf1-GAP” value in the series with Arf1-GAP / [D17]ARF1 was “inhibits”. Moreover, the “initial rate of GDP exchange in the presence of eEF1Bαγ” value in series [2] stood at 0.96 min⁻¹.
